# Results taken from patent US20250011391A1, “ULTRA LIGHT-SENSITIVE NEUROPSIN-BASED OPTOGENETIC TOOL FOR ACTIVATING G q-COUPLED SIGNALING AND/OR ACTIVATING CELLS” (GENANS BIOTECHNOLOGY CO., LTD, priority 2021, published 2025).
# B1: cOpn5: Chicken (Gallus gallus) Opn5 (neuropsin) ortholog, SEQ ID NO:1, GenBank NM_001130743.1 (protein, listed as Gallus lafayetii)
# chain: MSGMASDCNSSSQEEYLPHYVQQEDPFASKLSREADIIAGFYLTVIGILSTLGNGYVIFMSSKRKKKLRPAEIMTVNLAVCDLGISVVGKPFSIISFFSHRWIFGWMGCRWYGWAGFFFGCGSLITMTAVSLDRYLKICHLAYGTWLKRHHAFICLALIWAYATFWATVPFAGVGSYAPEPFGTSCTLDWWLAQASVAGQAFVLSILFFCLLFPTAVIVFSYVKIILKVKSSTKEVAHYDTRIQNSHILEMKLTKVAMLICAGFLIAWIPYAVVSVWSAFGQPDSVPIQFSVVPTLLAKSAAMYNPIIYQVIDCKFACCRSGGPKTLQKKSSLKESRMYTLSSHRDSAALSGTQLEV
# What was measured:
# [1] = tested on: GCaMP7b-expressing neurons in mouse S1 cortex; experiment: In vivo two-photon neuron calcium imaging following cOpn5-mediated astrocyte activation; settings: cOpn5-mediated astrocytes activation; N=193 neurons
# Experimental: Astrocytes release ATP and other gliotransmitters also act on neuronal receptors to modulate neuron activity. Two-photon imaging of neuronal Ca^2+ signals with cOpn5-mediated astrocytes activation from head-fixed awake, behaving mice, is performed (FIG. 6e). cOpn5-expressing cells (n=406) colocalize with GFAP-staining (n=397), but not GCaMP7b-expressing neurons (FIG. 6f).
# e, Schematic diagram of the experimental setup for in vivo two-photon imaging (920 nm) of neuron calcium imaging following cOpn5-mediated astrocyte activation. Images show the expression of cOpn5 (red) in astrocytes and the expression of a GCaMP7b (green) in […] the mouse S1 cortex. Scale bar, 100 μm.
# h, Calcium events analysis of GCaMP7b-expressing neurons in 0-5 min and 15-20 min, coupled with cOpn5-mediated astrocytes activation. N=193 neurons, ****P<0.0001, Unpaired t test.
# mouse cortical neurons = experiment: Ca2+ imaging (jRGECO1a) of cOpn5-expressing neurons in brain slice preparations; type: cell-based; settings: 10 s; 100 μW/mm2; 473 nm
# Text: The application of cOpn5-mediated optogenetics in neurons is explored. Whether cOpn5 could mediate light-induced Ca^2+ signals is firstly examined. Using AAV and the pan-neuronal SYN promoter, cOpn5 and the genetically-encoded Ca^2+ sensor jRGECOla are expressed in mouse cortical neurons (FIG. 8a). […] Thus, cOpn5 also enables light-induced activation in neurons.
# b, Pseudocolor images show Ca^2+ signals before and after light stimulation (10 s; 100 μW/mm2; 473 nm). Scale bar, 10 μm.
# [2] = tested on: Gq signaling in HEK 293T cells; experiment: Light-induced Ca2+ signal (Calbryte 630 AM dye) in opsin-expressing HEK 293T cells; type: cell-based; settings: for Light Sensitivity / Response amplitude: Ca2+ response amplitude: Table 8
# Experimental: (§1) Whether heterologous expression of the Opn5 orthologs from chicken, turtles, humans and mice (which share 80-90% protein sequence identity) have the capacity to mediate blue light-induced Gq signaling activation within HEK 293T cells is tested (FIG. 1a and table 7). Blue light for stimulation and the red intracellular calcium indicator Calbryte™ 630 AM dye are used to monitor the relative Ca^2+ response (FIG. 1b).
# b, Pseudocolor images of the Ca2+ signal before and after blue light stimulation (10 s; 100 μW/mm^2; 488 nm) in HEK 293T cells expressing Opn5 from three species (Gallus gallus, Homo sapiens, and Mus musculus). Scale bar, 10 μm.
# Characterizing the light-activating properties of cOpn5 heterologously expressed in HEK 293T cells is performed. […] The effects of different light durations on cOpn5-expressing HEK 293T cells are tested. […] Therefore, the light sensitivity of cOpn5 is 3-4 orders of magnitude higher than the reported values of the light-sensitive Gq-coupled GPCRs and even 2-3 orders higher than those of the commonly used optogenetic tool Channelrhodopsin-2 (ChR2)(Lin, 2011; Zhang et al., 2006) (table 8).
# The performance of cOpn5 to that of opto-a1AR, a chimera GPCR engineered by mixing rhodopsin with Gq-coupled adrenergic receptor is compared. […] The performance of cOpn5 to that of opn4, a natural opsin which was reported as a tool for Gq signaling activating is also compared. […] Therefore, compared with existing opsin-based tools (opto-a1AR and opn4), cOpn5 is much more light-sensitive (˜3 orders more sensitive), requires much shorter time exposure (10 ms vs. 60 s), and produces stronger responses. […]
# Experiments description: the following table 9 is a partial list of cOpn5 orthologs from vertebrata tested in the present invention. Whole genes of all reported opsin5 orthologs from vertebrata (the vertebrates subphylum, including rotundia, cartilaginous fishes, bony fishes, Amphibia, reptila, ornitha and mammals) are synthetized, and expressed in HEK 293T cells. Calcium imaging with or without 470 nm blue light stimulation is performed to test the sensitivity of the opsin 5 orthologs in response to light. The time course of light-induced calcium signal reveal the activated degree of Gq signaling pathway and the sensitivity of these orthologs.
# [3] = tested on: GABA neurons in the zona incerta (ZI) of VGAT-Cre mice; experiment: Food-foraging behavior task; type: in vivo, mouse; settings: vs EGFP-expressing mice
# Experimental: Finally, the utility of cOpn5-mediated optogenetics for modulating animal behavior is assessed. The lateral hypothalamus (LH) is a brain center with known functions in reward processing and feeding behaviors^54,55. cOpn5 is expressed in the LH GABAergic neurons of VGAT-Cre mice and implanted optical fibers to deliver light pulses into the LH of freely behaving mice (FIG. 8g). […] Electrophysiological recordings on LH and ZI cOpn5-expressing neurons are performed to characterize the response profiles. The injection sites and placement of optical fibers are confirmed by whole brain slices (FIG. 10a-c). […] Thus, cOpn5 is effective for rapidly, accurately, and reversibly modulating animal behavioral states.
# i, Schematic diagram of the experimental setup for food foraging behavior. High-fat food pellets were used. cOpn5-EGFP was expressed in GABAergic neurons within the zonal incerta (ZI) of VGAT-Cre mice. EGFP was expressed as a control.
# j, Summary of cOpn5-mediated food foraging behaviors. Foraging time percentage was calculated upon receiving light stimulation until the mouse found the hidden food. ****P<0.0001; n=6 mice; unpaired t test. Error bars indicate S.E.M.
# [4] = tested on: MARCKS protein, a well-established target of PKC; experiment: Phosphorylation of MARCKS in cOpn5-expressing HEK 293T cells; type: cell-based; settings: normalized to α-tubulin; PKC activity-dependent
# Experimental: as §1
# g, Phosphorylation of MARCKS in cOpn5-expressing HEK 293T cells in the control group (no light stimulation), the light stimulation group, and light+staurosporine (ST, PKC inhibitor) group. The amount of p-MARCKS in the same fraction was normalized to the amount of α-tubulin. **P=0.0096, ***P=0.0004; Tukey's multiple comparisons test.
# e, One representative of phosphorylation of MARCKS in cOpn5-expressing HEK 293T cells in the control group (no light stimulation), the light stimulation group, and light+staurosporine group. The amount of p-MARCKS in the same fraction was normalized to the amount of α-tubulin.
# Gi signaling = experiment: cAMP levels in Opn5-expressing HEK 293T cells after photostimulation; type: cell-based; settings: without additional retinal; 10 μM forskolin preincubation
# Experimental: as §1
# f, Light has no effect on cAMP levels (10 μM forskolin preincubation) in cOpn5-expressing HEK 293T cells without additional retinal in the medium (left panel).
# [5] = 10 ms 16 μW/mm2 470 nm, mean±S.E.M., n=10 cells
molecule,measurement,setting,value
B1,"neuron activity, 15-20 min compared to 0-5 min",[1],significantly elevates neuron activity
same,Ca2+ transients in neurons on blue light pulses,mouse cortical neurons,reliably evokes Ca^2+ transients
same,light sensitivity higher than reported values of Channelrhodopsin-2 (ChR2),[2],2-3 orders of magnitude
same,light sensitivity higher than reported values of light-sensitive Gq-coupled GPCRs,[2],3-4 orders of magnitude
same,more light-sensitive than opto-a1AR and opn4,[2],~3 orders
same,10% peak activation time of Ca2+ signal,[2]; [5],1.36 ± 0.55 s
same,90% peak activation time of Ca2+ signal,[2]; [5],2.37 ± 0.87 s
same,decay time τ of Ca2+ signal,[2]; [5],18.66 ± 4.98 s
same,Ca2+ signals without extracellular Ca2+,"[2]; 10 ms, 16 μW/mm2, 470 nm",resistant to the removal of extracellular Ca^2+
same,light duration at which Ca2+ response achieves saturation,"[2]; 16 μW/mm2, 470 nm",over 10 ms
same,Ca2+ response to longer-wavelength visible light (561 nm or above),[2]; 100 μW/mm2,completely ineffective
same,Ca2+ response to UVA light (365 and 395 nm),"[2]; 100 μW/mm2, versus 470 nm",less effective
same,light intensity producing about half maximum response,"[2]; 470 nm, 10 ms",~4.8 μW/mm^2
same,light intensity producing full maximum response / full activation,"[2]; 470 nm, 10 ms",16 μW/mm^2
same,light duration required for full activation,"[2]; 470 nm, 16 μW/mm2",10 ms
same,Light Sensitivity,"[2]; HEK 293T cells, 10 ms stimulation, response ~3.0 ΔF/F",16 μW/mm^2
same,Response amplitude: Ca2+ response amplitude,"[2]; HEK 293T cells, 470 nm, 0.026 μW/mm2, >2 s",~1 (ΔE/F)
same,Light Sensitivity,"[2]; HEK 293T cells, >2 s stimulation, response ~1",0.026 μW/mm^2
same,Response amplitude: Ca2+ response amplitude,"[2]; HEK 293T, light as in the row's sensitivity and duration columns",~3.0 (ΔF/F)
same,light-induced increase in Ca2+ signal,"[2]; blue light 10 s, 100 μW/mm2, 488 nm, no exogenous retinal",~3 ΔF/F
same,peak amplitudes of Ca2+ signals,"[2]; cOpn5-expressing cells, 10 ms blue light pulses at 16 μW/mm2",3-8 ΔF/F
same,more rapid than opto-a1AR or opn4 (temporal resolution),[2]; in response to 10 ms light pulses,~3 orders of magnitude
same,response kinetics versus hM3Dq-expressing cells,[2]; light 10 s vs CNO puff 100 nM 10 s,faster and temporally more precise response
same,wavelength eliciting the strongest Ca2+ transients,[2]; wavelengths 365-630 nm at fixed 100 μW/mm2,470 nm
same,time of foraging high fat food pellets on repeated light stimulation,[3],significantly increase in the time of foraging
same,blue light-triggered phosphorylation of MARCKS protein,[4],triggers the phosphorylation of MARCKS protein
same,effect of light on cAMP levels,Gi signaling,has no such effect
